Assay results as given in the DeepSol protein solubility set.

Assay: soluble on expression in E. coli; label from the status in PepcDB or PDB records

| Sequence | soluble on expression in E. coli |
| --- | --- |
| MEELASLTKTADGKVLTSVTQKRNRADAATYIGKGKVEELKALVEELEADLLIFNDELSPSQLKSLATAIEVKMIDRTQLILDILAKRARTREGKLQIELAQLQYALPRLTGQGINLSRQGGGIGARGPGETKLETDRRHIRNRIHEINTQVSTVIRHRSRYRERRKKNGVLQIALVGYTNAGKSTWFNRLTSADSYEEDLLFATLDPMTRKMVLPSGYSVLLSDTVGFIQDLPTTLIAAFRSTLEEVKEADLILHLIDSSNEDYAGHEKTVLRLLEELEADDIPMLTAYNKRDQKLPDFYRPPEGITLWSVRNLRTTLQPLKKRFSAICAKNCLEHHHHHH | not soluble |
| MAETTPKVKGHVVILPYPVQGHLNPMVQFAKRLVSKNVKVTIATTTYTASSITTPSLSVEPISDGFDFIPIGIPGFSVDTYSESFKLNGSETLTLLIEKFKSTDSPIDCLIYDSFLPWGLEVARSMELSAASFFTNNLTVCSVLRKFSNGDFPLPADPNSAPFRIRGLPSLSYDELPSFVGRHWLTHPEHGRVLLNQFPNHENADWLFVNGFEGLEETQDCENGESDAMKATLIGPMIPSAYLDDRMEDDKDYGASLLKPISKECMEWLETKQAQSVAFVSFGSFGILFEKQLAEVAIALQESDLNFLWVIKEAHIAKLPEGFVESTKDRALLVSWCNQLEVLAHESIGCFLTHCGWNSTLEGLSLGVPMVGVPQWSDQMNDAKFVEEVWKVGYRAKEEAGEVIVKSEELVRCLKGVMEGESSVKIRESSKKWKDLAVKAMSEGGSSDRSINEFIESLGK | soluble |
| MGSDKIHHHHHHMVFPISLEGYHLEEVVIIGGGVAGLSCLNALLDQGISALLIEGSTIGTPKMCGEFLAPIAAQQLQLWDVDPLIPIPHAAFYAGIRQLDIHFTKPSAAISRSDVELKLAARARRLGGRIRENTYLEYTTPATERTPFYFKLSTGEIIEAKSAFFATGKLSNNKDNKKIALPYFGFKLHFSHTENDHSLKMFSLDKAYLGIVPITETISNCACLAKREAVDAATSPEEHFRHLTQSHPVLKKIFTPLDLSAIDILSGRAPAFTQKKPPNWPNSYWIGDTLASLYPAIGSGFAHSVDSAIQAVQSYLKQQPKLYRINYSKSIKTKVLLGNVFNAALLQPKVGQLALPLLKRSPKLVNLVLKKLDYV | not soluble |
| MSSCKSHVYVSAFLLCMLIPISQQVLNEHNQKLEWIVGKWRSEFSGKIFWPTVPTMTFGEELVINEAPIAKSANVQFLNFSARAWSHSTKDHFHDEWGFLTVDPVGNATLMTTGNNGFTTYETGTVSPNKLVLTLKDIGRISFSRDLPVEDLRRTFIRHDDRYMEQVIEMRTATHPKVGYLEHTRVVYTKLK | not soluble |
| MQIKAGLIWMNGAFVPQEEAKTSVLSHALHYGTSVFEGIRAYETAKGPAIFRLKEHVKRFYNSAKVLRMEIPFAPEELEEAIKEVVRRNGYRSCYIRPLAWMGAKALGVNPLPNNPAEVMVAAWEWGAYLGEEAVRKGARLITSSWARFPANVMPGKAKVGGNYVNSALAKMEAVAAGADEALLLDEEGYVAEGSGENLFFVRDGVIYALEHSVNLEGITRDSVIRIAKDLGYEVQVVRATRDQLYMADEVFMTGTAAEVTPVSMIDWRPIGKGTAGPVALRLREVYLEAVTGRRPEYEGWLTYVNGQ | soluble |
| MGSDKIHHHHHHMINPIILPLDKVRNPRDLGSYVGYNGRKIKMHRLLRTGKISNITEHDKKFLLDYGLTKIIDLRSPFECKKAPDSQIPGVEHIDLSISTEDNTKGGKKDITKVFETYRKDQYAGFNMMCDRYRSHVMKEHAQHALHSILEVLANTKDGAIIYHCSEGKDRTGIVTVLILYLLGVDMETIRQDYLYSNYMLDNYRASRDKIMQENGENLCFRANMRILGSVSDAFLDTSLIAIHKNFGSLDNYLKEIIGVTPELRDTLRELYLED | not soluble |
| MGSDKIHHHHHHMIWYLEKWRRRWILGRKPIRESVWQSAVDQLPFLHGLTQDEFRQLREWTSIFLHDKKINGVQGLVVTEAMRVMIAVQACLLILKLDPEYYDDWVEVIVYPGKFILDHAYTDETGIVHTRRMVASGESWQAGPVILSWEDVVHVHHESGYNVVIHEFAHKLDMLNGSANGYPPLHSDMDPRIWAVVFSRAYEIFCRQVERGEVTIMDPYAAEDPAEFFAVSSEVFFTRPYRIKQYFPEMYQQLARYYRQDPAARQECETDS | not soluble |
| MGSDKIHHHHHHMDIAMVYSDRLLSPQIPPSRKLRVLKEVEIRLIEGEEQEVEELIMQIHSEEYFSRIRSHPFFENAVENVKCILTGLKALKDYDAVIVPVTTAGHLAEQSRMRGYCLLNGLAIAVKAAESYGRIAVIETDAHHGKASIVSEERATFFCIGRRECEISEDLRCVLGRRMGKDYVKSFEELVERVKEYDPNLVIWYLGLDLDSREYAEMPFGREEWEKLVKNFMKMAEGRKSLIMLALGLRDDVLKDIVGLFAGW | not soluble |
| MTPAIDAHVRLDTHPTHPSAVQAHLTGTQARVASMALEAAGWSAAATGVLVLARIDHEEPYWAADAAQHLTAAGITVEITPRLQEAIDEEWTWPNYPMTWCTRSEIREVSNQAQKIHDDIRNGHLLIHAHAHDGHTTVAVGTYLHPGGKSVYLHGEDHLRQVADTFDSPAEALVAFEKVHAAEMRPGPAPLTDTERAAIAARSVFDATTAKPEPPRREPEAVPVYLADAGDHDALLDSFLDTHGEFEKWRTWSDETTHAIHESQTLRIERVHETQARETAWTVAAYETPVSDRMWHLTATDATPAPVLLNLLNHLADGDGWDTVIGVPVGEKTVTTATQPLTEAGWKHTLTGHGIRWTSPDGQASVRFDPLTAQAPQNPATWTIWAGPGPDRPTWAITASSHTPSSLLADLSESLAHETGTRQPRPGREHRTRLAASAPAIPAVTSDRPASRSRLEHHHHHH | soluble |
| MGSDKIHHHHHHMIRKFVNRKRELEVLEKARLFVVHGRRRVGKTALLRKFLENKRYEKDVEGFSQEISSFINAPVRFESSRDAFKFLREQGKLIVILDEFPYLIEADKGIVSEFQEIVDVMLDNSDVTLILCGSSVGMMEREVPSYKSPLYGRAGGILKVQPFRFFDMVEWFGKDFERLLRIYDVTWGIPKYMEFFRTGSDEEIIANFFDPSAFLFNEARLLLLEELRNPSRYMQIIEAITLWKTRLNEIAQYTGIEPKDLPSYLRVLSNLGIIKREVPITERKGKRWVYVIEDEYFRFYHRFVSPHYEEIESLNPEPAIEDFRKNFNAYLGRTFEKVSREFLTRVIKPSKVGRWWHKGEEIDIVALKGEERKALLVEVKWKELSEKEARRILKDLEHKGELIGMEKWKRCYGLIAKKIENKESIKGEGFFLWDLKDFKSEMI | not soluble |
| MAKDVKPTRKNLMQIEDRIELSERGHDTLEKKRDGLIMEFMDILDQAQDVREDLDGSYERAQRAINMARAMEGDVAVRGAAAALKEHPELTTQSKNIMGVVVPQIESSKVRKSLDERGYGVMGTSARIDEAAEAYEELLENIILAAEVETAMKKMLEEIETTKRRVNALEFKLLPDLYDNQEYIEQKLEEQEREEIFRMKKIKAKKEEEEDALAAEEEAEEEPEAVTADDAAALEHHHHHH | soluble |
| MGSDKIHHHHHHMETSAPRAGSQVVATTARHSAAYRADPLRVSSRDKLTEMAASSQGNFEGNFESLDLAEFAKKQPWWRKLFGQESGPSAEKYSVATQLFIGGVTGWCTGFIFQKVGKLAATAVGGGFFLLQLANHTGYIKVDWQRVEKDMKKAKEQLKIRKSNQIPTEVRSKAEEVVSFVKKNVLVTGGFFGGFLLGMAS | not soluble |
| SLIHIAIVEDENKDRELLKEYLDRFQAEKGEPLFVHVYPDGEEFLESFSSGKFDILLLDIHMQYMNGMATAQEIRKSDENVLIIFITNLVQYAVQGYSVRAFDFIVKPVEYSVFAQKLYRATQRLNRTEG | soluble |
| MSLEQKILAQGALEAARRRQSEQEKALLLSQLKQLQSQMEPHFLFNTLANINALIAVEPYKAQLMLEKFTELLRGTMRLRRTNTGDLREEMQLIDAYLGIQKIRLGERLEYTLPELSELGTLGMPPMLIQPLVENAVSHGIEPKAEGGTIRVRIEVADDWFELSVEDNGMGLSDTPKGNGIALQNVRDRLSGLFGHEGLLTVAQNCSGGVTATLRIRLHHLQGLQRSFYDYSQARSPQSEGHHHHHH | soluble |
| MAFKDTFNKMISYFDTDEVNEVEEDVAASTDNVIPRSQQSVRASSHPKQEPRNNHVQQDHQARSQEQTRSQMHPKHGTSERYYQQSQPKEGHEMVDRRKRMSTSGIANRREQYQQSTCSDQTTIALKYPRKYEDAQEIVDLLIVNECVLIDFQFMLDAQARRCLDFIDGASKVLYGSLQKVGSSMYLLAPSNVSVNIEEMTIPHTTQDIGFDFDMKRRLEHHHHHH | not soluble |
